± gives the standard deviation of the averaged measurements.
B1: library; a variant is named by its letters at N, in order (parent)
chain: GCUGUCACCGGUGUAUUACCCUAGUGGUCGACCGGUCUGAUGAGUCUNNNNNNAGACGAAACAGC

Columns and labels:
hypoxanthine [1] = variants of: B1; assay: normalized RNA/DNA level with ligand (relative to sTRSVctl = 100) (log10 (% of sTRSVctl)); ligand: hypoxanthine (xanthine aptamer); higher = less ribozyme self-cleavage, higher mRNA level; conditions: ligand concentration (+) RNA-Seq: 5 mM, HEK293T, reporter: mCherry (pCS4076), ligand present: yes
Outline: (§1)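 Ribozyme switch library plasmids with mCherry reporters (eGFP in certain ligand experiments) went into HEK293T cells at 4 µg per 6-well well. Where ligand was used, it was applied 1 h before transfection, and total RNA was extracted with EDTA 72 h later for reverse transcription, amplification, barcoding and sequencing. RNA level is the RNA-to-DNA read ratio normalized to a spiked-in non-cleaving sequence or to the leading sequences, then scaled and log-transformed. Scaling was ×100 with log10, the leading set comprised 25 sequences, and the cutoff was ≥100 DNA reads.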

hypoxanthine [2] = variants of: B1; assay: normalized RNA/DNA level without ligand (relative to sTRSVctl = 100) (log10 (% of sTRSVctl)); ligand: hypoxanthine (xanthine aptamer); higher = less ribozyme self-cleavage, higher mRNA level; conditions: HEK293T, reporter: mCherry (pCS4076), ligand present: no
Outline: as §1

Variant	normalized RNA/DNA level with ligand (log10) (hypoxanthine [1])	normalized RNA/DNA level without ligand (log10) (hypoxanthine [2])
GUCCUA	1.95 ± 0.069	1.934 ± 0.015
GUCCUC	1.9 ± 0.016	1.93 ± 0.057
GUCCUG	1.88 ± 0.024	1.52 ± 0.022
GUAGGA	1.892 ± 0.002	1.66 ± 0.033
UUCAGU	1.947 ± 0.013	1.83 ± 0.036
UUCAGA	1.96 ± 0.037	1.823 ± 0.0059
UUCAGG	1.92 ± 0.025	1.79 ± 0.053
UUCAGC	1.94 ± 0.026	1.93 ± 0.02
AUAUGC	1.94 ± 0.0047	1.76 ± 0.018
GUAGCG	1.87 ± 0.02	1.535 ± 0.0049
GUAGCA	1.8839 ± 9.6e-05	1.8 ± 0.023
CUACGU	1.98 ± 0.067	1.9 ± 0.027
CUACGC	1.961 ± 0.011	1.913 ± 0.007
CUACGA	1.97 ± 0.034	1.87 ± 0.034
CUACGG	1.93 ± 0.047	1.98 ± 0.071
UUAGAG	1.832 ± 0.0063	1.556 ± 0.011
UUAGAC	1.9 ± 0.083	1.82 ± 0.022
UUAGAU	1.9278 ± 0.00084	1.766 ± 0.0096
UUACUA	1.93 ± 0.039	1.887 ± 0.011
UUACUC	1.995 ± 0.0094	2.02 ± 0.038
UUACUU	1.93 ± 0.025	1.93 ± 0.043
AUCCGG	1.954 ± 0.0038	1.7 ± 0.051
AUCCGU	1.96 ± 0.0099	1.91 ± 0.018
UUAUGC	1.94 ± 0.039	1.874 ± 0.0042

Variant	normalized RNA/DNA level with ligand (log10) (hypoxanthine [1])	normalized RNA/DNA level without ligand (log10) (hypoxanthine [2])
UUAUGU	1.92 ± 0.021	1.794 ± 0.01
CUAGGU	1.94 ± 0.028	1.88 ± 0.026
CUAGGC	1.94 ± 0.029	1.86 ± 0.086
UUAGCU	1.97 ± 0.021	1.89 ± 0.023
UUAGCC	1.95 ± 0.065	1.88 ± 0.025
UUAGCG	1.906 ± 0.018	1.8 ± 0.038
UUAGCA	1.95 ± 0.025	1.85 ± 0.025
UUCAAC	1.94 ± 0.044	1.873 ± 0.011
AUAUCU	1.89 ± 0.026	1.844 ± 0.016
AUAUCA	1.936 ± 0.0032	1.81 ± 0.021
AUAUCC	1.938 ± 0.015	1.876 ± 0.018
GUCUAC	1.94 ± 0.043	1.8 ± 0.018
UUCGAC	1.9 ± 0.074	1.781 ± 0.0058
UUCGAG	1.88 ± 0.038	1.544 ± 0.0067
CUCAAA	1.919 ± 0.0021	1.785 ± 0.013
CUCAAG	1.88 ± 0.0045	1.742 ± 0.0067
CUCAAU	1.92 ± 0.036	1.792 ± 0.0044
CUCAAC	1.98 ± 0.052	1.926 ± 0.0052
AUACGA	1.868 ± 0.018	1.7 ± 0.025
AUACGU	1.91 ± 0.032	1.84 ± 0.042
UUCUAC	1.87 ± 0.041	1.89 ± 0.085
CUCGGA	1.99 ± 0.03	1.84 ± 0.057
AUCGGA	1.94 ± 0.044	1.74 ± 0.061
AUCGGU	1.91 ± 0.02	1.6043 ± 0.0014

Variant	normalized RNA/DNA level with ligand (log10) (hypoxanthine [1])	normalized RNA/DNA level without ligand (log10) (hypoxanthine [2])
AUCGGC	1.97 ± 0.099	1.86 ± 0.029
AUCGGG	1.889 ± 0.0042	1.52 ± 0.06
UUCGGG	1.95 ± 0.044	1.73 ± 0.027
UUCGGC	1.95 ± 0.098	1.89 ± 0.025
UUCGGA	1.95 ± 0.034	1.75 ± 0.044
UUCCGU	2 ± 0.039	1.85 ± 0.025
UUCCGC	2.011 ± 0.003	1.89 ± 0.035
UUCCGA	1.97 ± 0.029	1.94 ± 0.03
UUCCGG	1.98 ± 0.024	1.903 ± 0.011
CUCAGG	1.95 ± 0.041	1.88 ± 0.026
CUCAGU	1.97 ± 0.061	1.89 ± 0.079
CUCAGC	2 ± 0.068	1.96 ± 0.01
CUCAGA	1.965 ± 0.012	1.8539 ± 0.00065
CUAUCU	1.9 ± 0.075	1.89 ± 0.042
CUAUCC	1.93 ± 0.062	1.92 ± 0.049
CUAUCG	1.956 ± 0.016	1.94 ± 0.033
CUAUCA	1.92 ± 0.041	1.86 ± 0.029
GUCGGU	1.91 ± 0.051	1.83 ± 0.035
AUCAAC	1.99 ± 0.031	1.84 ± 0.028
AUCAAA	1.921 ± 0.011	1.79 ± 0.034
AUCAAU	1.89 ± 0.038	1.78 ± 0.058
AUCCAC	1.95 ± 0.056	1.8068 ± 0.00014
GUACUU	1.9422 ± 0.0012	1.889 ± 0.006
GUACUC	1.93 ± 0.053	1.92 ± 0.032

Variant	normalized RNA/DNA level with ligand (log10) (hypoxanthine [1])	normalized RNA/DNA level without ligand (log10) (hypoxanthine [2])
GUACUA	1.937 ± 0.014	1.86 ± 0.037
GUACUG	1.883 ± 0.0029	1.53 ± 0.056
AUCCCA	1.92 ± 0.03	1.88 ± 0.02
AUCCCC	1.93 ± 0.025	1.87 ± 0.036
AUCCCU	1.97 ± 0.042	1.9 ± 0.022
UUACGC	1.94 ± 0.029	1.81 ± 0.054
UUACGG	1.94 ± 0.04	1.85 ± 0.029
UUACGA	1.923 ± 0.01	1.89 ± 0.022
UUAGUA	1.939 ± 0.017	1.81 ± 0.039
UUAGUG	1.89 ± 0.048	1.67 ± 0.043
UUAGUC	1.98 ± 0.0064	1.976 ± 0.015
UUAGUU	1.952 ± 0.0013	1.85 ± 0.038
GUAUUC	1.95 ± 0.073	1.931 ± 0.013
GUAUUA	1.92 ± 0.03	1.842 ± 0.017
GUAUUU	1.94 ± 0.079	1.859 ± 0.018
CUCCUA	1.96 ± 0.075	1.87 ± 0.055
CUCCUG	1.94 ± 0.021	1.953 ± 0.0068
CUCCUU	1.99 ± 0.087	1.89 ± 0.056
CUAUUU	2 ± 0.021	1.93 ± 0.053
UUCCUC	1.97 ± 0.038	2.04 ± 0.025
UUCCUA	1.94 ± 0.016	1.89 ± 0.0066
UUCCUU	1.92 ± 0.081	1.891 ± 0.0051
UUCGCU	1.983 ± 0.015	1.87 ± 0.049
UUCGCG	1.9036 ± 0.0015	1.84 ± 0.044

Variant	normalized RNA/DNA level with ligand (log10) (hypoxanthine [1])	normalized RNA/DNA level without ligand (log10) (hypoxanthine [2])
UUCGCC	1.95 ± 0.046	1.856 ± 0.015
GUCCAU	1.95 ± 0.028	1.852 ± 0.0035
AUAGAU	1.91 ± 0.063	1.7097 ± 0.00076
AUAGAG	1.81 ± 0.037	1.31 ± 0.019
AUCUAG	1.91 ± 0.033	1.61 ± 0.019
AUCUAC	1.9 ± 0.12	1.855 ± 0.013
CUCAUU	1.99 ± 0.067	2.01 ± 0.08
CUCAUG	1.96 ± 0.042	1.91 ± 0.024
GUAUGC	1.868 ± 0.0093	1.46 ± 0.08
AUCGUC	2.03 ± 0.048	1.977 ± 0.0058
AUCGUG	1.82 ± 0.047	1.4 ± 0.076
AUCGUU	1.98 ± 0.08	1.87 ± 0.043
AUCGUA	1.898 ± 0.017	1.74 ± 0.024
AUCGAA	1.863 ± 0.01	1.73 ± 0.04
UUCCAA	1.92 ± 0.097	1.8417 ± 0.0007
UUCCAG	1.9 ± 0.051	1.68 ± 0.064
UUCCAU	1.97 ± 0.074	1.882 ± 0.0027
CUAUGC	1.99 ± 0.044	1.88 ± 0.076
CUAUGU	1.952 ± 0.0085	1.88 ± 0.019
CUAUGA	1.95 ± 0.036	1.85 ± 0.042
